According to patent US7718391B2, “Assays for identifying modulators of rhomboid polypeptides” (Medical Research Council, priority 2001, dated 2010):

T1: Drosophila EGF receptor (UniProt P04412)
T1 sequence: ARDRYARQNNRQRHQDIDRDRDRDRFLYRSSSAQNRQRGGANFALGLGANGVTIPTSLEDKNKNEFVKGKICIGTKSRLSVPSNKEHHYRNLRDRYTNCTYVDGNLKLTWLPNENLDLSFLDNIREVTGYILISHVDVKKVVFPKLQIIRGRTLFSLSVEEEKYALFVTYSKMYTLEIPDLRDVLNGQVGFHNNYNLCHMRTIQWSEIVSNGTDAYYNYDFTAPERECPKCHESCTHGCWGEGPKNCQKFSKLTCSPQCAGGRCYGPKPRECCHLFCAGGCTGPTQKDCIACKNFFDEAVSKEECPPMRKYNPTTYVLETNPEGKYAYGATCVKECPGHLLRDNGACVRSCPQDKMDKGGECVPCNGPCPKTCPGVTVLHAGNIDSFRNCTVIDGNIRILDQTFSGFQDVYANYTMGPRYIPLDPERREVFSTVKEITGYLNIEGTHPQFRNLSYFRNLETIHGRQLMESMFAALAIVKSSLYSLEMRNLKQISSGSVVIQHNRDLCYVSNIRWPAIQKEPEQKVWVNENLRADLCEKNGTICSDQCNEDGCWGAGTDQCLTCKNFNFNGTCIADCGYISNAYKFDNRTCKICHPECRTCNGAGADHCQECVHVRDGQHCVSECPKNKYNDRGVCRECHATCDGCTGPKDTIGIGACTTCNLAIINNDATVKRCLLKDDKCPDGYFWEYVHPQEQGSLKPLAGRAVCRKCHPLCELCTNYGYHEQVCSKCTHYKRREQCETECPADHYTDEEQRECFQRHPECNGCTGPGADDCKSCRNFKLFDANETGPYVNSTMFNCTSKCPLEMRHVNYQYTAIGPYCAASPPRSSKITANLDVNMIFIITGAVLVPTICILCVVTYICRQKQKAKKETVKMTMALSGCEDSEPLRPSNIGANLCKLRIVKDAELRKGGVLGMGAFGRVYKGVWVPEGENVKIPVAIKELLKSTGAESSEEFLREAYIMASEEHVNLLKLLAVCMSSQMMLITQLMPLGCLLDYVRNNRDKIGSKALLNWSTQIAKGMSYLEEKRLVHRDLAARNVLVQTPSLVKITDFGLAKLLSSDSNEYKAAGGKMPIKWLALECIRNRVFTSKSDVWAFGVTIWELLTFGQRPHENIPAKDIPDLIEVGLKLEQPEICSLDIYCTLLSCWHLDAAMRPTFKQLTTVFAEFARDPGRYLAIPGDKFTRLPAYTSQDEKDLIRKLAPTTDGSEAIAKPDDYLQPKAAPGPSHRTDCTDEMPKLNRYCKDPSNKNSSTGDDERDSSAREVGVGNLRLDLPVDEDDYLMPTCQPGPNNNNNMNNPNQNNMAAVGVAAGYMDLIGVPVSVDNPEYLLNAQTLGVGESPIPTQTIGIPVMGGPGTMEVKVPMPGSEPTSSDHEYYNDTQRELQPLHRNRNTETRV

T2: GFP-Spitz (Drosophila Spitz with EGFP inserted between residues 33 and 34)
T2 sequence: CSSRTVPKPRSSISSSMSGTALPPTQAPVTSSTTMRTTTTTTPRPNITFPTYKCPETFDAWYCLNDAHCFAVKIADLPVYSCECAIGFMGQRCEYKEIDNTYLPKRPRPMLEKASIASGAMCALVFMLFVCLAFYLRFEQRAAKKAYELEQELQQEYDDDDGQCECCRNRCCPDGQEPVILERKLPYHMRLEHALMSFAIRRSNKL

T3: Drosophila Keren
T3 sequence: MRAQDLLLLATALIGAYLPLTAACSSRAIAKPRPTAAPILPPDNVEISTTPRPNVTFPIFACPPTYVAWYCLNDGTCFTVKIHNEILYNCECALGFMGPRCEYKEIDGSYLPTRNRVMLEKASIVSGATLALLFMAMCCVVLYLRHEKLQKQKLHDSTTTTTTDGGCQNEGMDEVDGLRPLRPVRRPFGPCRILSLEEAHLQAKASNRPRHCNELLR

T4: Drosophila Gurken
T4 sequence: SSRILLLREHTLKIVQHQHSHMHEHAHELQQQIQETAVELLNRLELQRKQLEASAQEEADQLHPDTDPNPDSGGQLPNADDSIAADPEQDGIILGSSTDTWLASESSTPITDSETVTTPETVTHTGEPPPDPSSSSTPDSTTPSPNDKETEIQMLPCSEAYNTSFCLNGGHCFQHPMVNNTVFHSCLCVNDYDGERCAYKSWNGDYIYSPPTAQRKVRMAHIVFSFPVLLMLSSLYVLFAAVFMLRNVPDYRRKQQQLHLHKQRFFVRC

T5: Drosophila Delta, P10041
T5 chain: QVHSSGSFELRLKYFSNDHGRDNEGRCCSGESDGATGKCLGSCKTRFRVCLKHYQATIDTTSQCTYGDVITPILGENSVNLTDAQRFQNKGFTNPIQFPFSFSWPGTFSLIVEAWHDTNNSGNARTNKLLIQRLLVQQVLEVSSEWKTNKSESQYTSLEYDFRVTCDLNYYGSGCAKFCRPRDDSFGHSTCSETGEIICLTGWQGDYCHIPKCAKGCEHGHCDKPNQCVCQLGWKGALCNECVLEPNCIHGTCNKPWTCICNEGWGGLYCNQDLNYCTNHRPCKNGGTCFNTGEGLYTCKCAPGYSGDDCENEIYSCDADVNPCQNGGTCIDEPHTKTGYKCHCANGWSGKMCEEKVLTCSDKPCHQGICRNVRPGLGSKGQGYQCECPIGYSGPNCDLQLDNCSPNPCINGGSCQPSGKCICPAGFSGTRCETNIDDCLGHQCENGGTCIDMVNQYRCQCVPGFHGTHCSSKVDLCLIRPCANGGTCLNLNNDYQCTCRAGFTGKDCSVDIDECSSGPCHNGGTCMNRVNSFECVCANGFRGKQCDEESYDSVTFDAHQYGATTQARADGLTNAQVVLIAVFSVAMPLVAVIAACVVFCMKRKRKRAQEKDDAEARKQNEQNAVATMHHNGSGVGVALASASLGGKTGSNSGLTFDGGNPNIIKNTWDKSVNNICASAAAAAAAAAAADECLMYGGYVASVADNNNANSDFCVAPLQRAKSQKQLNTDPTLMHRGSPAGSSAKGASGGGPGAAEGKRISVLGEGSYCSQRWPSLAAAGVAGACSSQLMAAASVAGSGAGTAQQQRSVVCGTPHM

T6: Drosophila EGF receptor, P04412
T6 chain: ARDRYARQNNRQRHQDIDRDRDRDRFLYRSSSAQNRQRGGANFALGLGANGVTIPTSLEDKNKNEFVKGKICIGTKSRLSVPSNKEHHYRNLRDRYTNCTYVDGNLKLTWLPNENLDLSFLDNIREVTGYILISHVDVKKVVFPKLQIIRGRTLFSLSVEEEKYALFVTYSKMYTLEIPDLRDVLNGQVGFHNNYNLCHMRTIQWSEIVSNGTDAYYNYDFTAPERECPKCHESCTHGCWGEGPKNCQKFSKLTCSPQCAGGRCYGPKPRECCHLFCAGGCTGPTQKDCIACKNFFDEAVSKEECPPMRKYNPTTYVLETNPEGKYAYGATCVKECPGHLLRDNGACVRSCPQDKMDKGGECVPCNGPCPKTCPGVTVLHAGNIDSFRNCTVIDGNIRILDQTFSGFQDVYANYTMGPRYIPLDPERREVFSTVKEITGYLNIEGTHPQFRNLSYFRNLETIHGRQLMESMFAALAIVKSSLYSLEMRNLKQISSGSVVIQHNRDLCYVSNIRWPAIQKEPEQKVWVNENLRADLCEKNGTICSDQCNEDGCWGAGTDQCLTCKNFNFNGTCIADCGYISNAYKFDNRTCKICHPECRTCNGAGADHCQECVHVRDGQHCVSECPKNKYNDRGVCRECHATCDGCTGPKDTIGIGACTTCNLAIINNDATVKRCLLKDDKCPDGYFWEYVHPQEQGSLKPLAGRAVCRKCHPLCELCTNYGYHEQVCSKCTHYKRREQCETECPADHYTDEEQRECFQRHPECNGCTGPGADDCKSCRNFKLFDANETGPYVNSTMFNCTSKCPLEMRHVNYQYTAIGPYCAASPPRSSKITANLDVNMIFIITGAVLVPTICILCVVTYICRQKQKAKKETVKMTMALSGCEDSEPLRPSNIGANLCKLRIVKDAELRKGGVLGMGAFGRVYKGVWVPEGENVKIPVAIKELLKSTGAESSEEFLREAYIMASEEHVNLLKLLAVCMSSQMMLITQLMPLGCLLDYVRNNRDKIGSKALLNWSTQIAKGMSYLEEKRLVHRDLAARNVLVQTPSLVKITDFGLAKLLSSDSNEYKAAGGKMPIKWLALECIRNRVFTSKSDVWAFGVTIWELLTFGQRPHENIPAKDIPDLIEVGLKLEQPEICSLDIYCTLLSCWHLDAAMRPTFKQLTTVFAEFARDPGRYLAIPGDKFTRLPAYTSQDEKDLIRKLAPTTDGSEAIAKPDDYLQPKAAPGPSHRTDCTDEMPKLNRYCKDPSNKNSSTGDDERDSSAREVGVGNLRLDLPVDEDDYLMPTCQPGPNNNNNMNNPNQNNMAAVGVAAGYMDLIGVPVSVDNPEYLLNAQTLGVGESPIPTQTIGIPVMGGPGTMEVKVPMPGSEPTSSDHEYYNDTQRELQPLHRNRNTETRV

B1: Drosophila Rhomboid-1 (triple HA tag at the N-terminus) (protein)
chain: MENPTQNVNETKVDLGQEKEKEASQEEEHATAAKETIIDIPAACSSSSNSSSYDTDCSTASSTCCTRQGEHIYMQREAIPATPLPESEDIGLLKYVHRQHWPWFILVISIIEIAIFAYDRYTMPAQNFGLPVPIPSDSVLVYRPDRRLQVWRFFSYMFLHANWFHLGFNIVIQLFFGIPLEVMHGTARIGVIYMAGVFAGSLGTSVVDSEVFLVGASGGVYALLAAHLANITLNYAHMKSASTQLGSVVIFVSCDLGYALYTQYFDGSAFAKGPQVSYIAHLTGALAGLTIGFLVLKNFGHREYEQLIWWLALGVYCAFTVFAIVFNLINTVTAQLMEEQGEVITQHLLHDLGVS

Columns and labels:
[1] = target: T1, Drosophila EGF receptor
[2] = test system: human TGFα (EGFP inserted between residues 32 and 33)
[3] = test system: T2, GFP-Spitz (Drosophila Spitz with EGFP inserted between residues 33 and 34)
[4] = test system: T3, Drosophila Keren
[5] = test system: uncleavable Spitz-TGFα chimera (Spitz with residues 140-160 replaced by the equivalent residues from TGFα, with the TGFα C-terminus)
[6] = test system: T4, Drosophila Gurken
[7] = target: T5, Drosophila Delta, P10041
[8] = target: T6, Drosophila EGF receptor, P04412
[9] = target: human TGN38
[10] = target: human TGFα (EGFP inserted between residues 32 and 33); remark: listed apart in the source
[11] = target: uncleavable Spitz-TGFα chimera (Spitz with residues 140-160 replaced by the equivalent residues from TGFα, with the TGFα C-terminus); remark: listed apart in the source
[12] = target: uncleavable Spitz-TGFα chimera with Spitz residue G143 restored in the TGFα TMD

| Molecule | cleavage of polypeptide substrates [1] | cleavage of polypeptide substrates [2] | cleavage of polypeptide substrates [3] | cleavage of polypeptide substrates [4] | cleavage of polypeptide substrates [5] | cleavage of polypeptide substrates [6] | cleavage of type-I membrane proteins [7] | cleavage of type-I membrane proteins [8] | cleavage of type-I membrane proteins [9] | cleavage of type-I membrane proteins [10] | cleavage of Spitz/TGFα TMD chimeras, without Star, with batimastat [11] | cleavage of the uncleavable Spitz-TGFα chimera with single Spitz residues put back [12] |
| --- | --- | --- | --- | --- | --- | --- | --- | --- | --- | --- | --- | --- |
| Drosophila Rhomboid-4 | Rhomboid-4 cleaves all the polypeptide substrates tested so far, including ... the completely unrelated Drosophila EGF receptor | Rhomboid-4 cleaves all the polypeptide substrates tested so far, including ... human TGFα | Rhomboid-4 cleaves all the polypeptide substrates tested so far, including Spitz | Rhomboid-4 cleaves all the polypeptide substrates tested so far, including ... Keren | Rhomboid-4 cleaves all the polypeptide substrates tested so far, including ... the 'non-cleavable' Spitz/TGFα chimera | Rhomboid-4 cleaves all the polypeptide substrates tested so far, including ... Gurken | – | – | – | – | – | – |
| B1 | – | – | – | – | – | – | Rhomboid-1 could not cleave other type-I membrane proteins including ... Drosophila Delta | Rhomboid-1 could not cleave other type-I membrane proteins including Drosophila EGF receptor | Rhomboid-1 could not cleave other type-I membrane proteins including ... human TGN38 | Rhomboid-1 could not cleave other type-I membrane proteins including ... human TGFα | replacing the remaining 5 residues (residues 140-160) abolished cleavage | substitution of only Spitz residue G143 restored cleavage of this chimeric substrate |
